Experimental data: patent publication US20240228595A1

Experiments:
[1] = target: SARS-COV-2 Omicron BA.1 spike on HIV-1 based pseudovirus (Example 3) (SARS-CoV-2 Omicron BA.1) (UniProt P0DTC2); assay: cell-based or functional assay
[2] = target: SARS-COV-2 Omicron BA.2 spike on HIV-1 based pseudovirus (SARS-CoV-2 Omicron BA.2) (UniProt P0DTC2); assay: cell-based or functional assay
[3] = target: SARS-COV-2 Delta RBD (Sino Biological Cat. No. 40592-V08H90) (SARS-CoV-2 Delta) (UniProt P0DTC2); assay: ELISA, SARS-CoV-2-Delta RBD coated, antibody titrated
[4] = target: SARS-COV-2 Omicron RBD recombinant protein (Sino Biological 40592-V08H121) (SARS-CoV-2 Omicron BA.1) (UniProt P0DTC2); assay: ELISA, SARS-CoV-2-Omicron BA.1 RBD coated, antibody titrated
[5] = target: SARS-COV-2 Omicron BA.2 RBD (AcroBiosystems Cat. No. SPD-C522g) (SARS-CoV-2 Omicron BA.2) (UniProt P0DTC2); assay: ELISA, SARS-CoV-2-Omicron BA.2 RBD coated, antibody titrated

S309 (Sotrovimab) (antibody) gave a pseudovirus neutralization, IC50 [1] of 446 ng/mL, a pseudovirus neutralization, IC50 [2] of 2750 ng/mL and a pseudovirus neutralization, fold drop of activity against Omicron BA.2 [2] of 30 fold. For the same substance, the EC50 [3] was 2 ng/mL, the EC50 [4] was 6 ng/mL and the EC50 [5] was 4 ng/mL.
